Test results from publication PMC12595022.

Target: 14-3-3γ (UniProt P61981)
Test: co-immunoprecipitation, Western blot
Conditions: reference: full-length wild-type MDMX; sites S367

binding against the reference: lost
Substance: MDMX (from UniProt O15151) MDMX-S367A
